The target in test [1] is Frizzled (FZD) on the cell surface of pancreatic cancer cell lines. Nature of the test: flow cytometry, YAPC cells stably expressing empty vector (EV).
Test [2] has the same target. Nature of the test: flow cytometry, YAPC cells stably expressing wild-type RNF43.
The target is the same in test [3]. Nature of the test: flow cytometry, YAPC cells stably expressing RNF43 F69C. (In general: In flow cytometry, cells or beads pass a laser one at a time.)
Test [4] shares this target. Nature of the test: flow cytometry, YAPC cells treated with 3 uM IWP-2.
The target is the same in test [5]. Nature of the test: flow cytometry, HPAFII cells, pGL2 siRNA.
Test [6] shares this target. Nature of the test: flow cytometry, YAPC cells, pGL2 siRNA.
For test [7] the target is unchanged. Nature of the test: flow cytometry, YAPC cells treated with 1 uM LGK974.
For test [8] the target is unchanged. Nature of the test: flow cytometry, YAPC cells transfected with pGL2 siRNA (control), 18R5 + APC anti-human IgG.
For test [9] the target is unchanged. Nature of the test: flow cytometry, YAPC cells transfected with RNF43 siRNA#2, 18R5 + APC anti-human IgG.
The target is the same in test [10]. Nature of the test: flow cytometry, YAPC cells transfected with RNF43 siRNA#1, 18R5 + APC anti-human IgG.
The target is the same in test [11]. Nature of the test: flow cytometry, PK1 cells, pGL2 siRNA.
The target is the same in test [12]. Nature of the test: flow cytometry, YAPC cells stably expressing RNF43 deltaRING.
Test [13] shares this target. Nature of the test: flow cytometry, PaTu-8988S cells, RNF43 siRNA.
Test [14] has the same target. Nature of the test: flow cytometry, HPAFII cells, RNF43 siRNA.
The target is the same in test [15]. Nature of the test: flow cytometry, Capan-2 cells, RNF43 siRNA.
The target is the same in test [16]. Nature of the test: flow cytometry, Capan-2 cells, pGL2 siRNA.
The target is the same in test [17]. Nature of the test: flow cytometry, PK1 cells, RNF43 siRNA.
For test [18] the target is unchanged. Nature of the test: flow cytometry, YAPC cells transfected with beta-catenin siRNA#2.
Test [19] shares this target. Nature of the test: flow cytometry, YAPC cells treated with DMSO.
Test [20] shares this target. Nature of the test: flow cytometry, PaTu-8988S cells, pGL2 siRNA.
Test [21] shares this target. Nature of the test: flow cytometry, YAPC cells, RNF43 siRNA.
Test [22] has the same target. Nature of the test: flow cytometry, YAPC cells transfected with pGL2 siRNA (control).
Test [23] has the same target. Nature of the test: flow cytometry, YAPC cells transfected with beta-catenin siRNA#1.

B1: pan-Frizzled antibody 18R5 (antibody, INN chains, looked up, V domains shown)
VH: EVQLVESGGGLVQPGGSLRLSCAASGFTFSHYTLSWVRQAPGKGLEWVSVISGDGSYTYYADSVKGRFTISSDNSKNTLYLQMNSLRAEDTAVYYCARNFIKYVFANWGQGTLVTVSS
VL: DIELTQPPSVSVAPGQTARISCSGDNIGSFYVHWYQQKPGQAPVLVIYDKSNRPSGIPERFSGSNSGNTATLTISGTQAEDEADYYCQSYANTLSLVFGGGTKLTVL
B1: the membrane Frizzled intensity in flow cytometry (RNF43 re-expression) in [1] stood at 1040; in test [2] it was 686; in test [3], 1500; in test [12], 2000. Besides, the Median FZD intensity in FACS in test [4] was 1750; in test [7] it was 1370; in test [8] it was 237; in test [9] it was 1750; in test [10] it was 1500; in [18], 561. The Median FZD intensity in FACS in [19] is 721; in test [22], 137; in test [23] it was 530. Moreover, the Mean FZD intensity in FACS came to 375 in test [5]; 353 in test [6]; 473 in test [11]; 245 in test [13]; 402 in test [14]; 2640 in test [15]. Besides, the Mean FZD intensity in FACS in [16] is 2440; in test [17], 923; in test [20], 293; in test [21] it was 1220.

The record behind these values is patent US20150125857A1.
